Measurements reported in patent US8022177B2, “Peptides and calcium regulation in mammalian cells” (The Board of Trustees of the University of Illinois, priority 2005, dated 2011).
Values joined by “and” are separate entries in the source; they are usually repeats but may differ in a detail not shown here. Equal values may be shown once.

Biological target: T1, Cav3.1 (Homo sapiens, UniProt O43497)
T1 construct: expressed in transfected cells; host or cells: HEK-293, stably transfected
Assay: Whole-cell patch clamp of Cav3.1 current in Cav3.1-HEK cells transfected with γ6, γ4, their first transmembrane domains or point mutants (Example 3)
Assay type: cell-based
Design: Activation K / Inactivation K: unit not given here
Details: for Peak current density: Cav3.1-HEK cells, control 48.43±2.62; for Calcium current density (unit not given): Example 2, control −48.39+/−2.6, fusion series control −46.9+/−5; for Normalized Current Density: relative to vector control (100.0%), Table 3.3
Protocol: Transfection. HEK-293 cells stably transfected with the Cav3.1 α1 subunit were transiently transfected with vectors containing GFP and γ subunits cDNA when the cultures reached 50% confluency. Lipofectamine 2000 reagent (Invitrogen) was used following manufacturer's protocol.
Electrophysiology. Whole cell Ca2+ currents were recorded at room temperature using an Axon Instruments Axopatch-1D amplifier, a Digidata 1200 interface and pClamp8.0 software about 48 hours after transfection. Cell capacitance was typically around 10 pF, but ranged from 5-40 pF. Recording micropipettes were made from borosilicate glass (2-3 Mohms tip resistance), and filled with solution contained (in mM) 130 NaCl, 10 EGTA, 2 MgCl2, 1 CaCl2, 10 HEPES, 3 Tris-ATP, and 0.3 Li2GTP or 0.3 Tris-GTP. Tyrode's solution was used as the bath solution. It contained (in mM) 137 NaCl, 1 KCl, 1 MgCl2, 0.33 NaH2PO4, 2 CaCl2, 10 HEPES. Both solutions were adjusted to pH 7.4 with NaOH and 280 mOsm with sucrose.
We determined the biophysical characteristics of Cav3.1 currents in transfected HEK-293 cells and effects of the first transmembrane domain of γ4 and γ6 on these properties. Test parameters were optimized for studying Cav3.1 current. The time constant (τ) of deactivation (τdeac) was obtained by single exponential fitting of tail currents. For Cav3.1 currents, the cells were clamped at a holding potential of −100 mV, then depolarized to −20 mV for 4 msec, and repolarized to various voltages from −120 mV to −60 mV at 10 mV interval for 150 msec to elicit tail currents.
The voltage dependence of activation was measured using tail currents. For Cav3.1 currents, the cells were clamped at a holding potential equal to −100 mV, and then depolarized briefly to a conditioning potential, varying from −90 mV to +60 mV, and finally clamped at −60 mV before inactivation. Using this protocol, all tail currents are elicited at the same driving force (at −60 mV), so the current amplitude accurately reflects the number of channels opened during the different conditioning potentials.
A series of conditioning prepulses of 500 msec were used to measure voltage dependence of inactivation in our experiments. Channels initially open and then reach steady-state inactivation during the 500 msec long prepulses. The membrane potential is stepped to a fixed test potential of −20 mV, where maximal peak current is elicited. Currents elicited at each test potential reflect how many channels are not in the inactivated state after a steady-state inactivation; that is, how many channels are available to open. The conditioning prepulse potentials were changed from −120 mV to 50 mV, and the test potential is fixed at −20 mV.
Data collection and analysis. To probe the structural features necessary for the function of γ subunits, we are using HEK-293 cell line stably transfected with Cav3.1 α1 subunit. These cells are then transiently transfected with vectors containing various chimeric, truncated or mutant gamma subunits. […] There is inherent variation in calcium current density in the HEK-Cav3.1 stable cell line likely due to differences in the batch used, passenger number, extent of cellular confluence, or for other unknown reasons. The averaged current density of each test group of cells was normalized to the mean current density of a parallel control group of cells plated from the same batch of cells and analyzed on the same day. A minimum of 5 cells (typically 7 to 10) from each group was used to calculate the mean behavior of test and control cells from each days recording. At least two independent transfections were performed for each test condition. Overall, averages were obtained from 21 control groups of cells that had been transfected with empty vector over several months. The data are pooled together to reduce the variance. […] The current density of the control cells over many months justified the pooling of data recorded from different batches of cells transfected with mutated γ subunits. […]

T1 sequence (O43497 whole entry): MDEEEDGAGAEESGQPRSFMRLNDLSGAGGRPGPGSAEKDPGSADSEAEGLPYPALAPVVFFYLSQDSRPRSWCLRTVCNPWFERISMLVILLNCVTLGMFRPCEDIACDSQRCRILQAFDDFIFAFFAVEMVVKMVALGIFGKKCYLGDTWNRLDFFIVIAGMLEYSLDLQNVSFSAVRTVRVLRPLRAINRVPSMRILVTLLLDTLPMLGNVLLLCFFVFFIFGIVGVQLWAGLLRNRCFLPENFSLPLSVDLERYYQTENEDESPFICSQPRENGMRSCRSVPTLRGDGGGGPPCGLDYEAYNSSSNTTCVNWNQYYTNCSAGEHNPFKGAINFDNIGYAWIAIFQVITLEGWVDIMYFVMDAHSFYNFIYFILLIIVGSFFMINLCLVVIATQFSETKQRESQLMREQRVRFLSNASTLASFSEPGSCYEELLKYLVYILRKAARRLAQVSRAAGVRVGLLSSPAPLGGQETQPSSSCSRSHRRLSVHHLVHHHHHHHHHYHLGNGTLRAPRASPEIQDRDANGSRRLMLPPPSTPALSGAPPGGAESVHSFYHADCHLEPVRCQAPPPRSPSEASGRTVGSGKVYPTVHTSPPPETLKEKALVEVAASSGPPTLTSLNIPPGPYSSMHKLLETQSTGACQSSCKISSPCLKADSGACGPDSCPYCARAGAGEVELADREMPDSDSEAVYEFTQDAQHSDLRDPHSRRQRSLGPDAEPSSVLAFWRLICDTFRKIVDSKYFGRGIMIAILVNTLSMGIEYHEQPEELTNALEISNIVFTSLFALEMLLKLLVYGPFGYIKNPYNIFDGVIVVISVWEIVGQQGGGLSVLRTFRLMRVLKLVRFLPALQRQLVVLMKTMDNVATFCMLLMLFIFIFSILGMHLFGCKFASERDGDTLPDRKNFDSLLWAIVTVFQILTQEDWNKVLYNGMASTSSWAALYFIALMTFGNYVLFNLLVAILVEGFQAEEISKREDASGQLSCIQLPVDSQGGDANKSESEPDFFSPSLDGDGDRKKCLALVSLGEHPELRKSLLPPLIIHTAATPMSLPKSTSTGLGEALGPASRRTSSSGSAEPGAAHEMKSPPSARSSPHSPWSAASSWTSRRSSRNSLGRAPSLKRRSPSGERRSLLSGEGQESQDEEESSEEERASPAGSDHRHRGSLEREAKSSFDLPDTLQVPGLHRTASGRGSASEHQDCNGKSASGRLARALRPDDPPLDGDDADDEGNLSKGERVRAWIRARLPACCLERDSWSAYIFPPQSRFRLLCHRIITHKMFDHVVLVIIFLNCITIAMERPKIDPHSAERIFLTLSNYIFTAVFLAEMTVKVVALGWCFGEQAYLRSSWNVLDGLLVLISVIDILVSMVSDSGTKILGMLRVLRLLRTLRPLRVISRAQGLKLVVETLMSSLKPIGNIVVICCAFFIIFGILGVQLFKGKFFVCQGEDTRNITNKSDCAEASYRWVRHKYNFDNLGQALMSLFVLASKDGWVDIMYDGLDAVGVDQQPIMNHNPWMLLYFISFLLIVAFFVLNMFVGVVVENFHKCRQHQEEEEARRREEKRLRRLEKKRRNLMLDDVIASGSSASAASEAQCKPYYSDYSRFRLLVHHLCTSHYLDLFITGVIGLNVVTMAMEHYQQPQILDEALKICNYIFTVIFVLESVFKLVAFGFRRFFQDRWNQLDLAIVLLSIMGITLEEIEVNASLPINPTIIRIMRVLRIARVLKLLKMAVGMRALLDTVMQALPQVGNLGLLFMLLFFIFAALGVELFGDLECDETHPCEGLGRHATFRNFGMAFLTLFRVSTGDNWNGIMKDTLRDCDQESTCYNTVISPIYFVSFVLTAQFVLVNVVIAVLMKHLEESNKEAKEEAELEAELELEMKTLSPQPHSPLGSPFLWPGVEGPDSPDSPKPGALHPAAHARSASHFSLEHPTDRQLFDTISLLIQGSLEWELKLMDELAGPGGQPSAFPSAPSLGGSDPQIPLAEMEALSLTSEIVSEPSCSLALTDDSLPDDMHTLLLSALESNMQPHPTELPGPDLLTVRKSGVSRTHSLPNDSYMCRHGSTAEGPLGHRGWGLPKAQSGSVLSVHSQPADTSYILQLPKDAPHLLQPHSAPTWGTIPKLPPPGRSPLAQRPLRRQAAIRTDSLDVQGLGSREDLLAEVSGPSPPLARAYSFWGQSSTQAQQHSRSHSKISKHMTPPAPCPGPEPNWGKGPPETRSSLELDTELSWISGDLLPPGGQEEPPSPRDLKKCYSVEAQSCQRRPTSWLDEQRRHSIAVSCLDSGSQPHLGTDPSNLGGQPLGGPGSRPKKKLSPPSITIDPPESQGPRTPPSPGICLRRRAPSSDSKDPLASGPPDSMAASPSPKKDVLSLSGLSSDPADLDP

B1: γ6L: rat calcium channel γ6 subunit, long isoform (AF361343), SEQ ID NO:48 (protein, listed as Rattus norvegicus)
chain: MMWSNFFMQEEDRRRTAVGRRRAQEQQNLGLTPEREGKIKLGLLVAIVGATLAVLAVGTEFWVELNTYKTNGSAVCEAAHLGLWKVCIKRLWQADVPAGRETCGPAELPGEANCTYFKFFTTGENAHIFQRTTKKEVNLAAAVIAVLGLTAMALGCLCVIMVLSKGAEFLLRLGAVCFGLSGLLLFVSLEVFRHSVRALLQGVNPETPPAPRLAYEYSWSLGCGVGAGLILLLGGVCFLLLTLPSWPWRSLCPKRGGPTA
For B1, the Peak current density was 27.85±3.32 pA/pF, the “Calcium current density (unit not given)” value was −7.8+/−3.3 and the “Decrease of peak current density from control” value (TM1 series, vs blank vector) was 42%. For the same molecule, the “Activation K” value (Table 3.2) was 11.99 ± 1.39, the “Activation V½” value (Table 3.2) was −28.12 ± 4.07 mV and the “Deactivation τ @−100 mV” value (Table 3.2) was 2.22 ± 0.19 ms. For the same molecule, the “Inactivation K” value (Table 3.2) was −5.42 ± 0.34, the “Inactivation V½” value (Table 3.2) was −67.53 ± 4.81 mV and the “Inactivation τ @−20 mV” value (Table 3.2) was 23.9 ± 1.6 ms. The “Time to peak @−25 mV” value (Table 3.2) was 9.03 ± 0.57, the Averaged peak current (group transfected with γ6, n=10) was −344.2±48.4 pA and the “Decrease of Cav3.1 peak current density from control” value (mutant series, control 100%±4.4%) was 45%. For the same molecule, the “Normalized Current Density” value (listed as γ6) was 55.4%±5.7% and 55.4%.

B2: γ4: rat calcium channel γ4 subunit (AF361341), SEQ ID NO:47 (protein, listed as Rattus norvegicus)
chain: MVRCDRGLQMLLTTAGAFAAFSLMAIAIGTDYWLYSSAHICNGTNLTMDDGPPPRRARGDLTHSGLWRVCCIEGIYKGHCFRINHFPEDNDYDHDSSEYLLRIVRASSVFPILSTILLLLGGLCIGAGRIYSRKNNIVLSAGILFVAAGLSNIIGIIVYISSNTGDPSDKRDEDKKNHYNYGWSFYFGALSFIVAETVGVLAVNIYIEKNKELRFKTKREFLKASSSSPYSRMPSYRYRRRRSRSSSRSTEASPSRDASPVGLKITGAIPMGELSMYTLSREPLKVTTAASYSPDQDAGFLQMHDFFQQDLKEGFHVSMLNRRTTPV
B2 was tested, and the Peak current density was 48.28±3.30 pA/pF, the “Calcium current density (unit not given)” value was −56.3+/−5 and the “Activation K” value (Table 3.2) was 12.83 ± 0.79. The “Activation V peak” value (Table 3.2) was −29.44±1.89 mV, the “Activation V½” value (Table 3.2) was −31.62 ± 3.24 mV and the “Deactivation τ @−100 mV” value (Table 3.2) was 2.20 ± 0.11 ms. The “Inactivation K” value (Table 3.2) was −6.04 ± 0.24, the “Inactivation V½” value (Table 3.2) was −67.77 ± 1.86 mV and the “Inactivation τ @−20 mV” value (Table 3.2) was 27.3 ± 1.4 ms. For the same molecule, the “Time to peak @−25 mV” value (Table 3.2) was 8.37 ± 0.39 and the “Normalized Current Density” value was 116.02%±11.4% and 116.0%.
